Data as given in publication PMC4586260 (Biochemistry, 2008).
“And” between values parts separate entries of the source, which are not always exact repeats. Equal entries are not always repeated.

Target: the molecule itself
Assay: SEC

B1: WRN C-terminal fragment WRN(1072-1432) (domain or fragment, human, UniProt Q14191 1072-1432, looked up)
chain: KKLLLPSSKTVSSGTKEHCYNQVPVELSTEKKSNLEKLYSYKPCDKISSGSNISKKSIMVQSPEKAYSSSQPVISAQEQETQIVLYGKLVEARQKHANKMDVPPAILATNKILVDMAKMRPTTVENVKRIDGVSEGKAAMLAPLLEVIKHFCQTNSVQTDLFSSTKPQEEQKTSLVAKNKICTLSQSMAITYSLFQEKKMPLKSIAESRILPLMTIGMHLSQAVKAGCPLDLERAGLTPEVQKIIADVIRNPPVNSDMSKISLIRMLVPENIDTYLIHMAIEILKHGPDSGLQPSCDVNKRRCFPGSEEICSSSKRSKEEVGINTETSSAERKRRLPVWFAKGSDTSKKLMDKTKRGGLFS
  stoichiometry N: 6 and 3

B2: WRN fragment WRN(1151-1432) (domain or fragment, human, UniProt Q14191 1151-1432, looked up)
chain: ETQIVLYGKLVEARQKHANKMDVPPAILATNKILVDMAKMRPTTVENVKRIDGVSEGKAAMLAPLLEVIKHFCQTNSVQTDLFSSTKPQEEQKTSLVAKNKICTLSQSMAITYSLFQEKKMPLKSIAESRILPLMTIGMHLSQAVKAGCPLDLERAGLTPEVQKIIADVIRNPPVNSDMSKISLIRMLVPENIDTYLIHMAIEILKHGPDSGLQPSCDVNKRRCFPGSEEICSSSKRSKEEVGINTETSSAERKRRLPVWFAKGSDTSKKLMDKTKRGGLFS
  stoichiometry N: 3
